Assays:
[1] = molecular target: His6-TBC1D15 (UniProt Q8TC07); experiment: HA beads pulldown, immunoblot band quantification; conditions: read off a plot
[2] = molecular target: His6-TBC1D15 (UniProt Q8TC07); experiment: immunoprecipitation with Flag beads, immunoblot band quantification; conditions: HA-SUMO2 co-expressed, read off a plot, scale: relative band intensity
[3] = + SulF (GST-SulF), parent: est. 0.16

UniProt Q8TC07, sequence (Q8TC07 whole entry, looked up): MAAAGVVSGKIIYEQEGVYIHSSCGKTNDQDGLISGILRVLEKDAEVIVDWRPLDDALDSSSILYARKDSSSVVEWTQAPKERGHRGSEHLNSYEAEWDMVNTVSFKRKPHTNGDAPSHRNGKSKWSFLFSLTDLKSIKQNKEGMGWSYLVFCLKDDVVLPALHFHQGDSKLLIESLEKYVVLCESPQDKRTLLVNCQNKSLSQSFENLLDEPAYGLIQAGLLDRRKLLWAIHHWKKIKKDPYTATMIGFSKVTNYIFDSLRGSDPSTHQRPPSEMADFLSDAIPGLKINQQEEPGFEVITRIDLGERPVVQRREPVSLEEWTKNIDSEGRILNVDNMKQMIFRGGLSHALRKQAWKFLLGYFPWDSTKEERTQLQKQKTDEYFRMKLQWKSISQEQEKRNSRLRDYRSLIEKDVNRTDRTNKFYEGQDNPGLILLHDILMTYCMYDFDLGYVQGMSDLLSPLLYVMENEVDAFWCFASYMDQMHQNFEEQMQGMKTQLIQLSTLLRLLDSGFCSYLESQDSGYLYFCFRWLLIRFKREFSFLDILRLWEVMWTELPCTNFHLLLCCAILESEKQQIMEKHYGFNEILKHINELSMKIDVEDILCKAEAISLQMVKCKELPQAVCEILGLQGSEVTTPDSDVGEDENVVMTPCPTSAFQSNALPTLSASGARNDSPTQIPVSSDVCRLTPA

Substance | response (relative ratio) ([1]; Buffer added after 1 h incubation) | response (relative ratio) ([1]; GST added after 1 h incubation) | response (relative ratio) ([1]; GST-SulF added after 1 h incubation (competition)) | response (relative ratio) ([1]; GST-SulFIV/AA added after 1 h incubation (competition)) | response ([2]; + GST, parent: est. 0.25) | response [2, 3]
Flag-Rab7 WT (Rab7 part of m4) Q67L | 1 | 1.1 | 0.34 | 1.1 | 0.88 | 0.48
Flag-Rab7 WT (Rab7 part of m4) Q67L; K175R | – | – | – | – | 1 | 1.1
Flag-Rab7 WT (Rab7 part of m4) T22N | – | – | – | – | 0.57 | 0.31
